T1: human GIP receptor (human) (UniProt P48546)
T1 sequence (looked up): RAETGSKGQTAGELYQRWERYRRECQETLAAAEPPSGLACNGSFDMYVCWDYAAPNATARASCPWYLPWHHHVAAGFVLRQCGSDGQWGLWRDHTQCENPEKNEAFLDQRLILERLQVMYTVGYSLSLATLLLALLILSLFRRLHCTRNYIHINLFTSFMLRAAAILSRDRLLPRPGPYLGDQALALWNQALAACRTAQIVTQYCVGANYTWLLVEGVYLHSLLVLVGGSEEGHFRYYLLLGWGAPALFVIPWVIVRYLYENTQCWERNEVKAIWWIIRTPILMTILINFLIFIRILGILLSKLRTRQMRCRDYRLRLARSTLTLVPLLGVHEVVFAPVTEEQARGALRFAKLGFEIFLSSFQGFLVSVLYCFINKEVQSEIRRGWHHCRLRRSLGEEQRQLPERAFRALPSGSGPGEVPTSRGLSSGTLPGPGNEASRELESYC


Legend:
Assay in all cases: cell-based or functional assay
[1] = biological target: human glucagon receptor (human) (UniProt P47871)
human glucagon receptor (human), sequence (P47871 26-477): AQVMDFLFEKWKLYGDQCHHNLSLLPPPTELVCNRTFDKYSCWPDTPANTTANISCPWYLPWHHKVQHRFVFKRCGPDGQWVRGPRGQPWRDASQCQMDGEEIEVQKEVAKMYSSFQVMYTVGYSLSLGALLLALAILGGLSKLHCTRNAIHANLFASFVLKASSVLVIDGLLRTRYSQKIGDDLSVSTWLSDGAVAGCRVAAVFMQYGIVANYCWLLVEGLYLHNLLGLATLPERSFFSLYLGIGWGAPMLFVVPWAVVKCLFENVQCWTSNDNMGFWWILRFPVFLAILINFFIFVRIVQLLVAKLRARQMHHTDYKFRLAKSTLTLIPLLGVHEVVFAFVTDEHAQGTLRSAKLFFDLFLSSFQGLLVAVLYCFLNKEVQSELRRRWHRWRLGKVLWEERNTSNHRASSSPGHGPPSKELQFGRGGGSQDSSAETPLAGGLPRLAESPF

[2] = biological target: T1, human GIP receptor (human)
[3] = biological target: hGLP-1R (Homo sapiens, UniProt P43220)
hGLP-1R, sequence (P43220 24-463): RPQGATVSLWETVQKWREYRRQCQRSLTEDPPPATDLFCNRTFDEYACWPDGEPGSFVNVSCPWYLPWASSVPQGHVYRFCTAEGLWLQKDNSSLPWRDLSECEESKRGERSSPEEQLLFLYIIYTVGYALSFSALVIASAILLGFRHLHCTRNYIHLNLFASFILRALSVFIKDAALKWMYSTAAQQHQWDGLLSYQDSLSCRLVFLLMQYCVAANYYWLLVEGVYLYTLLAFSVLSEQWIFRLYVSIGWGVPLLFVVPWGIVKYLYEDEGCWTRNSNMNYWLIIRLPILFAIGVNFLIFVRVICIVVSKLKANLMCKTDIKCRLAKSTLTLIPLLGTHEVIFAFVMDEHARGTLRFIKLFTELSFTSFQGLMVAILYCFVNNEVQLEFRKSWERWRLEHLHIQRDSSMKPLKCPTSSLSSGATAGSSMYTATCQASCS

| Binder | Relative cAMP EC50 [1] | cAMP Rel EC50, nM (1% HSA) [1] | Relative cAMP EC50 [2] | cAMP Rel EC50, nM (1% HSA) [2] | Relative cAMP EC50 [3] | cAMP Rel EC50, nM (1% HSA) [3] | cAMP Rel EC50, nM (in the presence of 1% HSA) [1] | cAMP Rel EC50, nM (in the presence of 1% HSA) [2] | cAMP Rel EC50, nM (in the presence of 1% HSA) [3] |
| --- | --- | --- | --- | --- | --- | --- | --- | --- | --- |
| YXQGTXTSDXXIXLDXKAAXEFIEXLIEGGPSSGAPPPSGGGE (synthetic construct; SITE 2: note = 2-Aminoisobutyric Acid; SITE 6: note = alpha-methyl-2-fluoro-L-phenylalanine; SITE 10: note = 3-(4-Pyridyl)-L-alanine; SITE 11: note = alpha-methyl-L-serine; SITE 13: note = alpha-methyl-leucine; SITE 16: note = L-ornithine; SITE 17: note = Lysine is chemically mo) [Example 747] | 1.71 nM | 169 nM | 0.00955 nM | 0.651 nM | 0.229 nM | 20.3 nM |  |  |  |
| YXQGTXTSDXXIXLDXKAQXEFIEXLIEGGPSSGEPPPEGTGE (synthetic construct; SITE 2: note = 2-Aminoisobutyric Acid; SITE 6: note = alpha-methyl-2-fluoro-L-phenylalanine; SITE 10: note = 3-(4-Pyridyl)-L-alanine; SITE 11: note = alpha-methyl-L-serine; SITE 13: note = alpha-methyl-leucine; SITE 16: note = L-ornithine; SITE 17: note = Lysine is chemically mo) [Example 763] | 1.57 nM | 222 nM | 0.00719 nM | 1.16 nM | 0.302 nM | 42.5 nM |  |  |  |
| YXQGTXTSDXXIXLDXKAAXEFIEXLIEGGPSSGEPPPSGGGE (synthetic construct; SITE 2: note = 2-Aminoisobutyric Acid; SITE 6: note = alpha-methyl-2-fluoro-L-phenylalanine; SITE 10: note = 3-(4-Pyridyl)-L-alanine; SITE 11: note = alpha-methyl-L-serine; SITE 13: note = alpha-methyl-leucine; SITE 16: note = L-ornithine; SITE 17: note = Lysine is chemically mo) [Example 748] | 1.42 nM | 156 nM | 0.0105 nM | 0.865 nM | 0.258 nM | 22.9 nM |  |  |  |
| YXQGTFTSDFSXXLDKKAQXAFIEYLLEAGPSSGAPPPSEG (not fully specified; synthetic construct; SITE 2: note = 2-Aminoisobutyric Acid; SITE 12: note = L-ornithine; SITE 13: note = alpha-methyl-leucine; SITE 17: note = Lysine is chemically modified through conjugation of the epsilon-amino group of the Lysine side chain with (2-[2-(2-Amino-ethoxy)-ethoxy]-acetyl)2-(gamma-Glu)) [Example 72] | 5.48 nM |  | 0.202 nM |  | 1.86 nM |  | 1910 nM | 56.7 nM | 683 nM |
| YXQGTFTSDFSQXLDKKAQXAFIEYLLEAGPSSGAPPPSGS (synthetic construct; SITE 2: note = 2-Aminoisobutyric Acid; SITE 13: note = alpha-methyl-leucine; SITE 17: note = Lysine is chemically modified through conjugation of the epsilon-amino group of the Lysine side chain with (2-[2-(2-Amino-ethoxy)-ethoxy]-acetyl)-(gamma-Glu)-CO-(CH2) 16-CO2H; SITE 20: n) [Example 775] | 4.36 nM | 724 nM | 0.105 nM | 25.8 nM | 0.993 nM | 202 nM |  |  |  |
| YXQGTFTSDFSQXLDKKAQXAFIEYLLEXGESSGAPPPSGE (synthetic construct; SITE 2: note = 2-Aminoisobutyric Acid; SITE 13: note = alpha-methyl-leucine; SITE 17: note = Lysine is chemically modified through conjugation of the epsilon-amino group of the Lysine side chain with (2-[2-(2-Amino-ethoxy)-ethoxy]-acetyl)-(gamma-Glu)-CO-(CH2) 16-CO2H; SITE 20: n) [Example 789] | 3.3 nM | 1200 nM | 0.101 nM | 20.4 nM | 2.74 nM | 379 nM |  |  |  |
| YXQGTFTSDFSQXLDKKAQXAFIEYLLEXGESSGAPPPSGS (synthetic construct; SITE 2: note = 2-Aminoisobutyric Acid; SITE 13: note = alpha-methyl-leucine; SITE 17: note = Lysine is chemically modified through conjugation of the epsilon-amino group of the Lysine side chain with (2-[2-(2-Amino-ethoxy)-ethoxy]-acetyl)2-(gamma-Glu)-CO-(CH2 )16-CO2H; SITE 20:) [Example 787] | 7.81 nM | 2060 nM | 0.0675 nM | 18.6 nM | 2.55 nM | 382 nM |  |  |  |
| YXQGTFTSDFSQXLDKKAQXAFIEYLLEXGPSSGAPPPSGS (synthetic construct; SITE 2: note = 2-Aminoisobutyric Acid; SITE 13: note = alpha-methyl-leucine; SITE 17: note = Lysine is chemically modified through conjugation of the epsilon-amino group of the Lysine side chain with (gamma-Glu)2-CO-(CH2)16-CO2H; SITE 20: note = 2-Aminoisobutyric Acid; SITE 29:) [Example 784] | 5.21 nM | 711 nM | 0.0587 nM | 11.8 nM | 2.09 nM | 284 nM |  |  |  |
| YXQGTFTSDFSQXLDKKAQXAFIEYLLEAGPSSXAPPPSGT (no C-terminal amide; synthetic construct; SITE 2: note = 2-Aminoisobutyric Acid; SITE 13: note = alpha-methyl-leucine; SITE 17: note = Lysine is chemically modified through conjugation of the epsilon-amino group of the Lysine side chain with (2-[2-(2-Amino-ethoxy)-ethoxy]-acetyl)-(gamma-Glu)-CO-(CH2) 16-CO2H; SITE 20: n) [Example 780] | 4.84 nM | 1250 nM | 0.111 nM | 22.1 nM | 1.26 nM | 211 nM |  |  |  |
| YXQGTFTSDFSQXLDKKAQXAFIEYLLEAGPSSGAPPPSGX (synthetic construct; SITE 2: note = 2-Aminoisobutyric Acid; SITE 13: note = alpha-methyl-leucine; SITE 17: note = Lysine is chemically modified through conjugation of the epsilon-amino group of the Lysine side chain with (2-[2-(2-Amino-ethoxy)-ethoxy]-acetyl)-(gamma-Glu)-CO-(CH2) 16-CO2H; SITE 20: n) [Example 777] | 3.89 nM | 1320 nM | 0.113 nM | 22.2 nM | 0.913 nM | 231 nM |  |  |  |
| YXQGTFTSDFSXXLDKKAQXAFIEYLLEGGPSSGXPPPGGS (not fully specified; synthetic construct; SITE 2: note = 2-Aminoisobutyric Acid; SITE 12: note = L-ornithine; SITE 13: note = alpha-methyl-leucine; SITE 17: note = Lysine is chemically modified through conjugation of the epsilon-amino group of the Lysine side chain with (gamma-Glu)2-CO-(CH2)16-CO2H; SITE 20: note = 2-Am) [Example 771] | 5.05 nM | 955 nM | 0.232 nM | 44.2 nM | 4.38 nM | 665 nM |  |  |  |
| YXQGTFTSDFSQXLDKKAQXAFIEYLLEAGPSSXAPPPSGT (synthetic construct; SITE 2: note = 2-Aminoisobutyric Acid; SITE 13: note = alpha-methyl-leucine; SITE 17: note = Lysine is chemically modified through conjugation of the epsilon-amino group of the Lysine side chain with (2-[2-(2-Amino-ethoxy)-ethoxy]-acetyl)-(gamma-Glu)-CO-(CH2) 16-CO2H; SITE 20: n) [Example 779] | 4.58 nM | 1020 nM | 0.112 nM | 19.3 nM | 0.949 nM | 175 nM |  |  |  |
| YXQGTFTSDFSQXLDKKAQXAFIEYLLEXGPSSGAPPPSGX (synthetic construct; SITE 2: note = 2-Aminoisobutyric Acid; SITE 13: note = alpha-methyl-leucine; SITE 17: note = Lysine is chemically modified through conjugation of the epsilon-amino group of the Lysine side chain with (2-[2-(2-Amino-ethoxy)-ethoxy]-acetyl)-(gamma-Glu)-CO-(CH2) 16-CO2H; SITE 20: n) [Example 782] | 4.96 nM | 1380 nM | 0.0711 nM | 15.5 nM | 1.94 nM | 354 nM |  |  |  |
| YXQGTFTSDFSXXLDKKAQXAFIEYLLEGGPSSXAPPPGGS (not fully specified; synthetic construct; SITE 2: note = 2-Aminoisobutyric Acid; SITE 12: note = L-ornithine; SITE 13: note = alpha-methyl-leucine; SITE 17: note = Lysine is chemically modified through conjugation of the epsilon-amino group of the Lysine side chain with (gamma-Glu)2-CO-(CH2)16-CO2H; SITE 20: note = 2-Am) [Example 770] | 5.37 nM | 390 nM | 0.244 nM | 18.2 nM | 3.91 nM | 240 nM |  |  |  |
